For assay [1], the target named is T1, CaATP-G-actin (rabbit skeletal muscle actin, monomer) (rabbit), P68135. Put plainly: cross-linking; bacterial transglutaminase (0.3-0.4 mg/ml) at 22 °C, 4 μM CaATP-G-actin or TG-G-actin with 4-8 μM peptide, 1 to 30 min, stopped by 1 mM cysteamine; 12% SDS-PAGE, Coomassie blue or fluorescence, densitometry; one series with 0-200 mM NaCl (1 min). The settings on record: remark: other sources report otherwise.

Assay [2] has as its target T1, CaATP-G-actin (rabbit skeletal muscle …). Put plainly: cross-linking; competition: 6 μM Fl-LL-37 and 0-16 μM histatin-3 or histatin-5 for transglutaminase cross-linking to 4 μM CaATP-G-actin, 22 °C; SDS-PAGE visualized by fluorescence. The note with it: remark: other sources report otherwise.

Here are results for two molecules from PMC5340040.

No end group written: not given here.

B1: FAM labeled histatin-5 (peptide)
peptide: DSHAKRHHGYKRKFHEKHHSHRGY
modifications: also: FAM label, position not given here
With B1, the percent decrease of the extent of cross-linking with 200 mM NaCl in assay [1] is more than 70%.

B2: Histatin-5 (peptide)
peptide: DSHAKRHHGYKRKFHEKHHSHRGY
Regarding B2, in assay [2], the percent decrease of the cross-linking of 6 μM Fl-LL-37 to 4 μM G-actin at 3 μM histatin worked out at 68%.
